B1: MIP-1β: β chemokine (protein, UniProt P13236 24-92, looked up)
C-C motif chemokine 4: APMGSDPPTACCFSYTARKLPRNFVVDYYETSSLCSQPAVVFQTKRSKQVCADPSESWVQEYVYDLELN
B2: Rantes: β chemokine, natural ligand of CCR5 (protein, UniProt P13501 24-91, looked up)
C-C motif chemokine 5: SPYSSDTTPCCFAYIARPLPRAHIKEYFYTSGKCSNPAVVFVTRKNRQVCANPEKKWVREYINSLEMS
B3: MIP-1α: β chemokine (protein, UniProt P10147 24-92, looked up)
C-C motif chemokine 3: SLAADTPTACCFSYTSRQIPQNFIADYFETSSQCSKPGVIFLTKRSRQVCADPSEEWVQKYVSDLELSA

The test system of this assay is HIV-1 Bal. The assay can be described thus: Infection of human monocyte-derived macrophages by HIV-1 (p24). The class given is cell-based. The following applies: HIV-1 BaL (TASP also Ada); p24 in supernatant. On the procedure: Macrophages are infected with BaL or Ada HIV-1 viruses, in the presence of 2 μM, 1 μM or 0.1 μM of 5[Kψ (CH2N)PR]-TASP. Cells are preincubated during 30 min at 4° C. in the presence of 5[Kψ (CH2N)PR]-TASP before adding the virus. Every 3 days interval, the whole culture supernatant is collected and is replaced by RPMI 1640 culture medium supplemented with 20% fetal calf serum (FCS), 1% antibiotics, 1% glutamine, in addition to 5[Kψ (CH2N)PR]-TASP that is kept present in the culture medium until day 14 after in vitro infection. Virus production is quantitated by titration of p24 protein in the culture supernatant at different times (days) after in vitro infection. Each value represented in the graphs represents the mean of two test samples.
Macrophages are infected by the BaL VIH-1 virus in the presence of 100 μg/ml of anti-P95, anti-P40 and anti-P30 antibody. Cells are preincubated during 30 min at 4° C. in the presence of each kind of antibody before adding the virus. The antibodies are kept present in the culture medium during the whole infection period of time. The experimental conditions are identical to those detailed in 4 +L4. The results are representative of two independent experiments.
Cells are preincubated during 30 min at 4° C. in the presence of the different molecules either alone or in association before adding the virus. Every three days period, the whole culture supernatant is collected and is replaced by RPMI 1640 culture medium supplemented with 20% fetal calf serum (FCS), 1% antibiotics, 1% glutamine, in addition to each tested molecule. Virus production is quantitated by titration of p24 protein in the culture supernatant at different times (days) after in vitro infection. Every value reprented in the graphs represents the mean of two test samples.
For the molecule B1, the “effect on infection of human macrophages by HIV-1” value (“effect on infection” below) is “inhibit”.

Turning to B2, the “effect on infection” value was “inhibit”.

Turning to B3, the “effect on infection” value is listed as “weaker inhibitory effect”.

These data come from patent US20020076693A1, “Novel cell surface receptor for HIV retroviruses, therapeutic and diagnostic uses” (priority 1997, published 2002).
